In the nanobody polyreactivity screen of Harvey et al. (2022):

Assay: yeast display, Sf9 membrane polyspecificity reagent, FACS + sequencing; frameworks hold sequencing errors
Procedure, shortened: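 After 36–48 hours of galactose induction, yeast (Saccharomyces cerevisiae BJ5465) displaying a synthetic nanobody library were stained at 4 °C for 1 hour with 10% biotinylated, detergent-solubilized Sf9 membrane reagent. Streptavidin microbeads enriched the stained cells before FACS sorting into low and high (top ~1%) gates on anti-HA and streptavidin fluorescence. Each clone's polyreactivity label reflects its gate of origin.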

Sequence | polyreactivity (PSR sort gate)
QVQLVESGGGLFQAGGSLRLSCAASGFIFTRYAMGWYRQAPGKERELVAAISWSGGSTYYADSVKGRFTISRDNAKNTVYLQMNSLKPEDTAVYYCAADGSDSYDYWGQGTQVTVSS | low polyreactivity
QVQLVESGGGLFQAGGSLRLSCAASGFTFYGYAMAWYRHAPGKERELVAAITFRGDRTYYADSVKGRFTISRDNAKNTVYLQINSLKPEDTAVYYCAAVRPSGWYSYLSLYIVRRGYWGQGTQVTVSS | low polyreactivity
QVQLVESGGGLFQAGGSLRLSCAASGFTIYHNAMRWYRQEPGKERELVAAISSSGDSTYYADSVKGRFTISRDNAKNTVYLQMNSLKPEDTAVYYCNDYFYYLSLYYYYWFNYDYWGQGTQVTVSS | low polyreactivity
QVQLVESGGGLFQAGGSLRLSCAASGIIFRGNAMGWYRQATVKERELVAAISKSGGRTYYADSVKGRFTISRDNAKNTVYLEMICLKPEDSAVYYCAARFYAVGGYDYWGQGTQVTVSS | high polyreactivity
QVQLVESGGGLFQAGGSLRLSCAASGIIFYVNAMAWSRQAPGKERERVAVISRRGGSTNDADSVKGRFTISRDNAKNTVYLQMKSLKPEDTAVYYCDAGYRTAYRGSSYYYWGKGTQVTVSS | high polyreactivity
QVQLVESGGGLFQAGGSLRLSCAASGITFYYYTMGWYRQAPGKERELVAAISTRGGRTYYADSVKGRFTISRDNAKNTVYLQMNSLKPEDTAVYYCATYQSGVYASKRRLDYWGQGTQVTVSS | high polyreactivity
QVQLVESGGGLFQAGGSLRLSCAASGLTFVDNSMGWYRQAPGKEREFVAAITKRGGRTYYADSVKGRFTISRDNAKNTVYLQMTSLKPEDTAVYYCARESGNDSSRRLDYWGQGTQVTVSS | low polyreactivity
QVQLVESGGGLFQAGGSLRLSCAASGNTFLRNAMGWYRQPPWKERELVAAISRSGGRTYYADSVKGSFTISRDNAKNTVYLQMISLKPDDTAVYYCAVVTQFGDGYYWGQGTQVTVSS | high polyreactivity
QVQLVESGGGLFQAGGSLRLSCAASGRIFDYNVMGWYRQAPGKERELVADINGSGGGTNYADSVKGRFTISRDNAKNTVYLQMNSLKPEDTAVYYCNADSYEYHVPYYDYRYDYWGQGTQVTVSS | low polyreactivity
QVQLVESGGGLFQAGGSLRLSCAASGRIFGFYAMGWYRQAPGKERELVARITLSGGRTYYADSVKGRFTISRDNAKNTVYLQMNSLKPEDTAVYYCAADSIGRLWGYGYWGQGTQVTVSS | high polyreactivity
QVQLVESGGGLFQAGGSLRLSCAASGRIFNSNTMGWYRPAPGKDRELVARIDTGGGSTYADSVKGRFTISRDNAKNTVYLQMNSLQPEDTAVYHCNKIGRWRSWGSTSLVSMDYWGQGTKVTVSS | low polyreactivity
QVQLVESGGGLFQAGGSLRLSCAASGRTFGYYAMGWYRQAPGKERELVAAITGDATTYYADSVKGRFTISRDNAKNTVYLQMNSLQPEDTAVYYCDALFTPALSEYDYWGQGTQVTVSS | high polyreactivity
QVQLVESGGGLFQAGGSLRLSCAASGRTFVHNAMGWYRQAPGKERDLVAVITSGARTTYADSVKGRFTISRDNAKNTVYLQMNSLKPEDTAVYYFAAGTFSVIFSYKYRHYYYWGQGTQVTVSS | low polyreactivity
QVQLVESGGGLFQAGGSLRLSCAASGRTFYSNDMGWYRQAPGNERELVAAISWRSGSTHYADSVKGRFTISRDNAKNTVYFQMNSLKPEDTAVFYCAARRRDLVPHYYWGQGTQVTVSS | high polyreactivity
QVQLVESGGGLFQAGGSLRLSCAASGSIFDDYAMGWYRQAPGKERELVAAISSSGTSTYYADSVKGRFTISRDNAKNTVYLQMNSLKPEDTAVFYCAARSAILKSGYLMDYWGQGTQVTVSS | low polyreactivity
QVQLVESGGGLFQAGGSLRLSCAASGSIIRKYAMGWSIQAPGKERELVAAISRRTGNTYYADSVKGRFTISRDNAKNTVYLQMKSLKPEDTAVYYCAADYYSSSSWSEVDSWGQGTQVTVSS | high polyreactivity
QVQLVESGGGLFQAGGSLRLSCAASGSILTHYAMGWYRQAPGKERELVAGNTSGGTTNYADSVKGRFTISRDNAKNSVYLQMNSLKPEDTAVYYCNADVWICQRFETGYDFDYWGQGTQVTVSS | low polyreactivity
QVQLVESGGGLFQAGGSLRLSCAASGSISYYNAMGWYRQAPGKERELVATITDSGGSTYYADSVKGRFTISRDIAKNTVYLQMISLKPEDTAVYYCAVDFSEWYSIYDYWGQGTQVTVSS | low polyreactivity
QVQLVESGGGLFQAGGSLRLSCAASGSTFAPYAMGWYRHATGKERELVAAISNSGGSTYYADSVKGRFTISRDDAKNTVYLQMNCLKPEATAVLYCATLKYPYATSQGYDFWGQCTQVTVSS | high polyreactivity
QVQLVESGGGLFQAGGSLRLSCAASGSTFFGYAMGWYRQAPGKERELVAAISSRGGTTNYADSVKGRFTISRDNAKNTVYLQMNSLKPEDNAVYYCNAKDTQEYNRVKYNYWGQGTQVTVSS | high polyreactivity
QVQLVESGGGLFQAGGSLRLSCAASGSTFGFYAIGWYRQAPGKERELVARITYSGGSTYYADSVKGRFTISRDNAKITVYLQLNSLIPEDNAVSYCAARSWTHYFRYDYWGQGTQVTVSS | high polyreactivity
